Usually Kd stands for a measure of binding affinity in units of concentration.

Read-outs that look alike come from different tables or passages of the source.

The values below come from patent US20150361183A1 (published 2015).

The target of one assay is C3dg (UniProt P01024 955-1303). Nature of the assay: SPR; thioester-coupled (clustered), steady state.
Assay [1] has as its target T1, C3b (UniProt P01024 749-1663; P01024 23-667). In words: SPR; amine-coupled C3b (monomeric), steady state. (In SPR one partner is held on a chip, and binding of the other changes the refractive index at the surface.)
The target of assay [2] is T1, C3b. In words: SPR; thioester-coupled C3b (clustered), steady state.
Assay [3] concerns the target T2, iC3b (UniProt P01024 23-667; P01024 749-1303; P01024 1321-1663). In words: SPR; thioester-coupled (clustered), steady state.
Assay [4] has as its target T2, iC3b. Nature of the assay: SPR; thioester-coupled (clustered), steady state. This is another data set of the same source.
In assay [5] the target is T1, C3b. In words: SPR; amine-coupled C3b (monomeric), steady state. This is another data set of the same source.

T1 sequence (P01024 749-1663, chain 1 of 2): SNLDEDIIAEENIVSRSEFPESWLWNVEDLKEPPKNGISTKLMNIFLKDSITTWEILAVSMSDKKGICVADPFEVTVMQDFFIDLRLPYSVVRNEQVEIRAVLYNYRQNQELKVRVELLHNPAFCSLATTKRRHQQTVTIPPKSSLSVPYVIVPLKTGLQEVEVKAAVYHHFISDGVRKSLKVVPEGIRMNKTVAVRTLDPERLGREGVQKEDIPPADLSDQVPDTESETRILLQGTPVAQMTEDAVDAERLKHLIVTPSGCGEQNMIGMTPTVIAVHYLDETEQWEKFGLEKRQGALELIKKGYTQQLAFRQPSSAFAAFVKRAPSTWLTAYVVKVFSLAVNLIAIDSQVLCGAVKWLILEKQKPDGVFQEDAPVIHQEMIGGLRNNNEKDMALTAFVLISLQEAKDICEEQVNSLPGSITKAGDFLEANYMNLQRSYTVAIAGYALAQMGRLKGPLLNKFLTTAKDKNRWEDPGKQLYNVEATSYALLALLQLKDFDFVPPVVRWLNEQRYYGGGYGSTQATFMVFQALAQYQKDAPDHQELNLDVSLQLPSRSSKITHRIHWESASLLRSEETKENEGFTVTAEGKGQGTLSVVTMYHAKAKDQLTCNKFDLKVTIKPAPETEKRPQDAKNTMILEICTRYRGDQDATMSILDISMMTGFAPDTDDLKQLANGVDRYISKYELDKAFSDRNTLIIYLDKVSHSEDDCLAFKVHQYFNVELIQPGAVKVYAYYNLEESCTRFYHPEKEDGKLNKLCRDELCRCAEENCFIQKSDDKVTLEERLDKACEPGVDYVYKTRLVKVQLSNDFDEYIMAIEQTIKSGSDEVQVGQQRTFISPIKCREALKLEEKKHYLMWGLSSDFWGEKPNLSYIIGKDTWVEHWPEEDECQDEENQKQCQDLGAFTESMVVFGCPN
T1 sequence (P01024 23-667, chain 2 of 2): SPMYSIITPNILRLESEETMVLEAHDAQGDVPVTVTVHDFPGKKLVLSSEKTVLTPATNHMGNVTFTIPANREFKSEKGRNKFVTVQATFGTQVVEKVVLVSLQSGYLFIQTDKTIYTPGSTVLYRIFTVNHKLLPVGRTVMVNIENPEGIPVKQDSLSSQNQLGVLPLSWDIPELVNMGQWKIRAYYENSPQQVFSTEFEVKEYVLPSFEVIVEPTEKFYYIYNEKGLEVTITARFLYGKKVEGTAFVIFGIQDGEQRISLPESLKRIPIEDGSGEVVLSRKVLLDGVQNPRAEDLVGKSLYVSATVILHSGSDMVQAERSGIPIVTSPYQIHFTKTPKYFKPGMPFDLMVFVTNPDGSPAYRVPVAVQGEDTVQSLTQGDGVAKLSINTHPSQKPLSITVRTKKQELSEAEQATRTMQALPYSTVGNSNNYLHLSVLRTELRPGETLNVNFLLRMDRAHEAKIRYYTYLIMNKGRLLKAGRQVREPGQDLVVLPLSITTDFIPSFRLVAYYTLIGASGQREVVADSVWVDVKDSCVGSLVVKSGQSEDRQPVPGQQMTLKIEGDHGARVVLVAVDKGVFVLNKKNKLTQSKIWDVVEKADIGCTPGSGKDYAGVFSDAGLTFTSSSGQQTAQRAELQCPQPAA
T2 sequence (P01024 23-667, chain 1 of 3): as the sequence (P01024 23-667, chain 2 of 2) above
T2 sequence (P01024 749-1303, chain 2 of 3): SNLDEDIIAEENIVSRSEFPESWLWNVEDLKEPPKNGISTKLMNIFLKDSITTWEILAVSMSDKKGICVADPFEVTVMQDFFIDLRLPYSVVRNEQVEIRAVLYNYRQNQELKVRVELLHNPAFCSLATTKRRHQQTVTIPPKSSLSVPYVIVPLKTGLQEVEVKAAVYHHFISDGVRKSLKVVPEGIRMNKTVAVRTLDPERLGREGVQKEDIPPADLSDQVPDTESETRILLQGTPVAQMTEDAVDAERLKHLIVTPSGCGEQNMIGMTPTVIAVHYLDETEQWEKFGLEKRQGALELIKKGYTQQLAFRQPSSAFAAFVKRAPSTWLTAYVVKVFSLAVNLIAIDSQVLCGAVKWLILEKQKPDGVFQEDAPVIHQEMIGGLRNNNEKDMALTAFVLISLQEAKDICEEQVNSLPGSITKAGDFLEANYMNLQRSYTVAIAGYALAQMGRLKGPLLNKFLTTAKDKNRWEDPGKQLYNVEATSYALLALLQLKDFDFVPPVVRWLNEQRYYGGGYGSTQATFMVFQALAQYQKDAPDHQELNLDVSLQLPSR
T2 sequence (P01024 1321-1663, chain 3 of 3): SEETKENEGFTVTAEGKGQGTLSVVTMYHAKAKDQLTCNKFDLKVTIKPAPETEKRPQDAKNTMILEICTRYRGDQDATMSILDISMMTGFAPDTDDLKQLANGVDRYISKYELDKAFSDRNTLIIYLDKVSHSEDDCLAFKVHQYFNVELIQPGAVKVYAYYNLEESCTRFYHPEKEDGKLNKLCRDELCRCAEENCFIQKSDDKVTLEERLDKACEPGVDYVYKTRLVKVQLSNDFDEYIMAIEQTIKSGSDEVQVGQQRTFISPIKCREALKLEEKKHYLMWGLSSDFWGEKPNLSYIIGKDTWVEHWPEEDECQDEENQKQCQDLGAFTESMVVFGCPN
Chain of C3dg (P01024 955-1303): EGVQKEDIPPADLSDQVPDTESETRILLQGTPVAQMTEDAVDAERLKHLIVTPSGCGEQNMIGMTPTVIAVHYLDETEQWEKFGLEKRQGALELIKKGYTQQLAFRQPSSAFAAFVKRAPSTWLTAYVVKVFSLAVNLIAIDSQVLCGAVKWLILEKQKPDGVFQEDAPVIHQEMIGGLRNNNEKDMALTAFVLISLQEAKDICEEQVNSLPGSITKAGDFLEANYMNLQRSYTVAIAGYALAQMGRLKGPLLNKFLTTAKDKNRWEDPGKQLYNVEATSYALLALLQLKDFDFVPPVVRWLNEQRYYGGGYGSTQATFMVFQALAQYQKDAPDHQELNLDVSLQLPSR

B1: CFHR5 (complement factor H-related protein 5), wild type (other)
chain: EGTLCDFPKIHHGFLYDEEDYNPFSQVPTGEVFYYSCEYNFVSPSKSFWTRITCTEEGWSPTPKCLRMCSFPFVKNGHSESSGLIHLEGDTVQIICNTGYSLQNNEKNISCVERGWSTPPICSFTKGECHVPILEANVDAQPKKESYKVGDVLKFSCRKNLIRVGSDSVQCYQFGWSPNFPTCKGQVRSCGPPPQLSNGEVKEIRKEEYGHNEVVEYDCNPNFIINGPKKIQCVDGEWTTLPTCVEQVKTCGYIPELEYGYVQPSVPPYQHGVSVEVNCRNEYAMIGNNMITCINGIWTELPMCVATHQLKRCKIAGVNIKTLLKLSGKEFNHNSRIRYRCSDIFRYRHSVCINGKWNPEVDCTEKREQFCPPPPQIPNAQNMTTTVNYQDGEKVAVLCKENYLLPEAKEIVCKDGRWQSLPRCVESTAYCGPPPSINNGDTTSFPLSVYPPGSTVTYRCQSFYKLQGSVTVTCRNKQWSEPPRCLDPCVVSEENMNKNNIQLKWRNDGKLYAKTGDAVEFQCKFPHKAMISSPPFRAICQEGKFEYPICE
As to B1, the Kd came to 270 nM in the assay with C3dg, 3800 nM in the assay with C3b [1], 310 nM with C3b [2] and 270 nM with iC3b [3].

B2: Complement factor H (CFH) (other)
chain: EDCNELPPRRNTEILTGSWSDQTYPEGTQAIYKCRPGYRSLGNVIMVCRKGEWVALNPLRKCQKRPCGHPGDTPFGTFTLTGGNVFEYGVKAVYTCNEGYQLLGEINYRECDTDGWTNDIPICEVVKCLPVTAPENGKIVSSAMEPDREYHFGQAVRFVCNSGYKIEGDEEMHCSDDGFWSKEKPKCVEISCKSPDVINGSPISQKIIYKENERFQYKCNMGYEYSERGDAVCTESGWRPLPSCEEKSCDNPYIPNGDYSPLRIKHRTGDEITYQCRNGFYPATRGNTAKCTSTGWIPAPRCTLKPCDYPDIKHGGLYHENMRRPYFPVAVGKYYSYYCDEHFETPSGSYWDHIHCTQDGWSPAVPCLRKCYFPYLENGYNQNYGRKFVQGKSIDVACHPGYALPKAQTTVTCMENGWSPTPRCIRVKTCSKSSIDIENGFISESQYTYALKEKAKYQCKLGYVTADGETSGSITCGKDGWSAQPTCIKSCDIPVFMNARTKNDFTWFKLNDTLDYECHDGYESNTGSTTGSIVCGYNGWSDLPICYERECELPKIDVHLVPDRKKDQYKVGEVLKFSCKPGFTIVGPNSVQCYHFGLSPDLPICKEQVQSCGPPPELLNGNVKEKTKEEYGHSEVVEYYCNPRFLMKGPNKIQCVDGEWTTLPVCIVEESTCGDIPELEHGWAQLSSPPYYYGDSVEFNCSESFTMIGHRSITCIHGVWTQLPQCVAIDKLKKCKSSNLIILEEHLKNKKEFDHNSNIRYRCRGKEGWIHTVCINGRWDPEVNCSMAQIQLCPPPPQIPNSHNMTTTLNYRDGEKVSVLCQENYLIQEGEEITCKDGRWQSIPLCVEKIPCSQPPQIEHGTINSSRSSQESYAHGTKLSYTCEGGFRISEENETTCYMGKWSSPPQCEGLPCKSPPEISHGVVAHMSDSYQYGEEVTYKCFEGFGIDGPAIAKCLGEKWSHPPSCIKTDCLSLPSFENAIPMGEKKDVYKAGEQVTYTCATYYKMDGASNVTCINSRWTGRPTCRDTSCVNPPTVQNAYIVSRQMSKYPSGERVRYQCRSPYEMFGDEEVMCLNGNWTEPPQCKDSTGKCGPPPPIDNGDITSFPLSVYAPASSVEYQCQNLYQLEGNKRITCRNGQWSEPPKCLHPCVISREIMENYNIALRWTAKQKLYSRTGESVEFVCKRGYRLSSRSHTLRTTCWDGKLEYPTCAKR
B2: the Kd with iC3b [4] came to 2600 nM; with C3b [5], 1700 nM.
